# Results published in patent publication US20040091468, “Novel transcriptional mediators of blood vessel development and endothelial differentiation” (published 2004).
# B1: Tie2 promoter Ets oligonucleotide (dsDNA)
# DNA 1: TGCAAAGGAAACAGGAAAAAGGAACTTAAC
# DNA 2: GTTAAGTTCCTTTTTCCTGTTTCCTTTGCA
# B2: Tie1 P1 (dsDNA)
# DNA 1: ACTGGCTTCCTCCCTTTCCTGTCTC
# DNA 2: GAGACAGGAAAGGGAGGAAGCCAGT
# B3: Tie1 P2 (dsDNA)
# DNA 1: CCATCATTTCCTCTTCCTCCCCAG
# DNA 2: CTGGGGAGGAAGAGGAAATGATGG
# B4: Tie1 P2 Mut2 (dsDNA)
# DNA 1: CCATCATTTCCTCTTAATCCCCAG
# DNA 2: CTGGGGATTAAGAGGAAATGATGG
# B5: Tie1 P2 Mut1,2 (dsDNA)
# DNA 1: CCATCATTTAATCTTAATCCCCAG
# DNA 2: CTGGGGATTAAGATTAAATGATGG
# Tests used:
# cELF-1 [1] = target: T1, cELF-1 (Gallus gallus); assay: EMSA; anti-ELF-1 antibody interferes and supershifts; room temperature; settings: tags: none (TNT reticulocyte lysate); label: 32P
# T1 chain: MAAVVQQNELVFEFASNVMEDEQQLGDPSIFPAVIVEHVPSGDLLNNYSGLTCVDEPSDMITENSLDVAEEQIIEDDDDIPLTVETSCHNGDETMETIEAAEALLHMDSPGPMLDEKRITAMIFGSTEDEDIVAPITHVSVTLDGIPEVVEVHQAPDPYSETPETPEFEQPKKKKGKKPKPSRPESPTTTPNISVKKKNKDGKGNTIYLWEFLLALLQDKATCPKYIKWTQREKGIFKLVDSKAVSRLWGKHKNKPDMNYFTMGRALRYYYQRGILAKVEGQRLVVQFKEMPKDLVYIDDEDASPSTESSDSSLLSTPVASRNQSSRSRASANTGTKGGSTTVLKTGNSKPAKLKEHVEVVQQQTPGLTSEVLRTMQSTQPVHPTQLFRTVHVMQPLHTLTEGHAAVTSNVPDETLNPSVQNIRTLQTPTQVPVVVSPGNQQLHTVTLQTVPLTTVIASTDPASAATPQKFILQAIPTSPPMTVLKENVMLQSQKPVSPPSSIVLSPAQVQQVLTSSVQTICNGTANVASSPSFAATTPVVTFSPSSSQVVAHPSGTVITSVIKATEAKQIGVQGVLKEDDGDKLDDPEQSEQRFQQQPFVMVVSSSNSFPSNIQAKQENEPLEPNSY
# Description: The ability of in vitro translated human ELF-1 and cELF-1 to bind to the same Tie2 Ets sites was also examined. As is shown in FIG. 8A, both human and chicken ELF-1 form similar DNA-protein complexes with the Tie2 Ets sites (lane 2 and 3). The ability of an ELF-1 specific antibody to interfere with the formation of these complexes was also tested. This antibody was able to interfere with complex formation of both human and chicken ELF-1. […] Because several Ets factors may potentially bind to the Tie2 Ets site in vivo in the developing chicken we performed gel shift assays with the Tie2 Ets probe and cell extracts from the chicken CAM. As is shown in FIG. 8B, lane 3, a similar size complex is formed compared to the in vitro translated cELF-1.
# (§1) Briefly, 20-μL samples containing 2 μL of in vitro-translated products or cell extracts were incubated with a solution containing ³²P-labeleddouble-stranded probes (30 000 cpm). Samples were incubated in the presence or absence of increasing amounts of cold competitor (5 or 50 ng) for 15 to 20 minutes at room temperature and run on a 4% polyacrylamide gel (acrylamide-bisacrylamide, 29:1) containing a buffer of 0.25×TBE (22.5 mmol/L Tris borate and 0.5 mmol/L EDTA).
# cELF-1 [2] = target: T1, cELF-1; assay: EMSA; binds well; room temperature; settings: tags: none (TNT reticulocyte lysate); label: 32P
# Description: (§2) The ability of cELF-1 to bind to conserved Ets sites in the Tie1 promoter was examined. There are two Ets site doublets, P1 and P2 that are highly conserved in this promoter. The ability of cELF-1 to bind to these Ets sites was tested. As is shown in FIG. 8C, cELF-1 binds well to both of these Ets sites. […] When both of the Ets site were mutated (Mut 1,2) the oligonucleotides were unable to compete for binding. When the first Ets site was mutated, Mut 1, it competed only weakly with binding of cELF-1 to the Tie1 P2 probe.
# as §1
# cELF-1 [3] = target: T1, cELF-1; assay: EMSA; binds well; wild type cold oligo competes; settings: tags: none (TNT reticulocyte lysate); label: 32P
# Description: as §2, §1
# cELF-1 [4] = target: T1, cELF-1; assay: competition; 5 or 50 ng cold competitor vs Tie1 P2 probe; competes as well as wild type; settings: tags: none (TNT reticulocyte lysate)
# Description: as §2, §1
# cELF-1 [5] = target: T1, cELF-1; assay: competition; 5 or 50 ng cold competitor vs Tie1 P2 probe; unable to compete; settings: tags: none (TNT reticulocyte lysate)
# Description: as §2, §1
binder,measurement,setting,value
B1,binding result,cELF-1 [1],binds
B2,binding result,cELF-1 [2],binds
B3,binding result,cELF-1 [3],binds
B4,binding result,cELF-1 [4],binds
B5,binding result,cELF-1 [5],no binding
